Data: patent US20250353888A1 (ENANTIS S R O, published 2025)
Where a chain is given by its changes, count along the chain named. In names and notes the source's numbering stands.

B1: FGF10 single-point mutant V123I (ligand)
chain: MGSSHHHHHHSSGLVPRGSHMLGQDMVSPEATNSSSSSFSSPSSAGRHVRSYNHLQGDVRWRKLFSFTKYFLKIEKNGKVSGTKKENCPYSILEITSVEIGVVAIKAINSNYYLAMNKKGKLYGSKEFNNDCKLKERIEENGYNTYASFNWQHNGRQMYVALNGKGAPRRGQKTRRKNTSAHFLPMVVHS
B2: FGF10 single-point mutant N181D (ligand)
chain: B1 chain with I105V, N163D
B3: FGF10 single-point mutant Q175E (ligand)
chain: B1 chain with I105V, Q157E

What follows are binders tested against FGF receptor 2b (FGFR2b) naturally expressed on 4MBr-5 rhesus monkey bronchial epithelial cells (rhesus monkey) (assay: cell-based or functional assay).

Binder | ED50, proliferation of lung epithelial 4MBr-5 cells (resazurin) [ng/mL]
B1 | 0.4
B2 | 1.6
B3 | 0.2
